Results reported in the RNAGym collection of RNA variant scans (doi:10.7554/elife.90254).

B1: OR4K15 (parent)
chain: GUUAACGGUCAUAGGCCAUGGAAACUAGGAGCACCAUUUCGCUGCCAGUGAAGAAAUGAACAAAGAAAAUCUGGGCCAGGCAGGCAUCAAAAGAAAUAGUCUUGCGCUCAACCAGAAAGUCUGUAAUCAUUUUAAGGGUA

Variants of: B1
Test: self-cleavage, relative activity (ratio to wild type); higher = more cleavage; in vitro, sequencing; the parent is a self-cleaving ribozyme

Row | Variant | self-cleavage
1 | GUUAACGGUCAUAGGCCAUGGAAACUAGGAGCACCAUCUCGCUGCCAGUGAAGAAAUGACCAAAGAAAAUCUGGGCCAGGCAGGCAUCAAAAGAAAUAGUCUUGCGCUCAACCAGAAAGUCUGUAAUCAUUUUAAGGGUA | 2.1
2 | GUUAACGGUCAUAGGCCAUGGAAACUAGGAGCACCAUCUCGCUGCCGGUGAAGAAAUGAACAAAGAAAAUCUGGGCCAGGCAGGCAUCAAAAGAAAUAGUCUUGCGCUCAACCAGAAAGUCUGUAAUCAUUUUAAGGGUA | 0.74
3 | GUUAACGGUCAUAGGCCAUGGAAACUAGGAGCACCAUCUCGCUGCCCGUGAAGAAAUGAACAAAGAAAAUCUGGGCCAGGCAGGCAUCAAAAGAAAUAGUCUUGCGCUCAACCAGAAAGUCUGUAAUCAUUUUAAGGGUA | 1.99
4 | GUUAACGGUCAUAGGCCAUGGAAACUAGGAGCACCAUCUCGCUGCCUGUGAAGAAAUGAACAAAGAAAAUCUGGGCCAGGCAGGCAUCAAAAGAAAUAGUCUUGCGCUCAACCAGAAAGUCUGUAAUCAUUUUAAGGGUA | 0.77
5 | GUUAACGGUCAUAGGCCAUGGAAACUAGGAGCACCAUCUCGCUGCCAGUGAAGAAAUGAACAAGGAAAAUCUGGGCCAGGCAGGCAUCAAAAGAAAUAGUCUUGCGCUCAACCAGAAAGUCUGUAAUCAUUUUAAGGGUA | 1.45
6 | GUUAACGGUCAUAGGCCAUGGAAACUAGGAGCACCAUAUCGCCGCCAGUGAAGAAAUGAACAAAGAAAAUCUGGGCCAGGCAGGCAUCAAAAGAAAUAGUCUUGCGCUCAACCAGAAAGUCUGUAAUCAUUUUAAGGGUA | 1.3
7 | GUUAACGGUCAUAGGCCAUGGAAACUAGGAGCACCAUAUCGCAGCCAGUGAAGAAAUGAACAAAGAAAAUCUGGGCCAGGCAGGCAUCAAAAGAAAUAGUCUUGCGCUCAACCAGAAAGUCUGUAAUCAUUUUAAGGGUA | 1.61
8 | GUUAACGGUCAUAGGCCAUGGAAACUAGGAGCACCAUCUCGCUGCCAGUGAAGAAAUGGACAAAGAAAAUCUGGGCCAGGCAGGCAUCAAAAGAAAUAGUCUUGCGCUCAACCAGAAAGUCUGUAAUCAUUUUAAGGGUA | 0.61
9 | GUUAACGGUCAUAGGCCAUGGAAACUAGGAGCACCAUAUCGCUGCCAGUGAAGAAAUGAACAAAGAAAAUCUGGGCCAGGCAGGCAUCAAAAGAAAUAGCCUUGCGCUCAACCAGAAAGUCUGUAAUCAUUUUAAGGGUA | 2.23
10 | GUUAACGGUCAUAGGCCAUGGAAACUAGGAGCACCAUAUCGCUGCCAGUGAAGAAAUGAACAAAGAAAAUCUGGGCCAGGCAGGCAUCAAAAGAAAUAGUCUUGCGCUCAACCAGAUAGUCUGUAAUCAUUUUAAGGGUA | 0.73
11 | GUUAACGGUCAUAGGCCAUGGAAACUAGGAGCACCAUCUCGCUGCCAGUGAAGGAAUGAACAAAGAAAAUCUGGGCCAGGCAGGCAUCAAAAGAAAUAGUCUUGCGCUCAACCAGAAAGUCUGUAAUCAUUUUAAGGGUA | 1.17
12 | GUUAACGGUCAUAGGCCAUGGAAACUAGGAGCACCAUCUCGCUGCCAGUGAAGUAAUGAACAAAGAAAAUCUGGGCCAGGCAGGCAUCAAAAGAAAUAGUCUUGCGCUCAACCAGAAAGUCUGUAAUCAUUUUAAGGGUA | 2.56
13 | GUUAACGGUCAUAGGCCAUGGAAACUAGGAGCACCAUCUCGCUGCCAGUGAAGAAAUGAACGAAGAAAAUCUGGGCCAGGCAGGCAUCAAAAGAAAUAGUCUUGCGCUCAACCAGAAAGUCUGUAAUCAUUUUAAGGGUA | 1.37
14 | GUUAACGGUCAUAGGCCAUGGAAACUAGGAGCACCAUCUCGCUGCCAGUGAAGAAAUGAACAAAGAAAAUCUGGGCCAGGCAGGCGUCAAAAGAAAUAGUCUUGCGCUCAACCAGAAAGUCUGUAAUCAUUUUAAGGGUA | 1.65
15 | GUUAACGGUCAUAGGCCAUGGAAACUAGGAGCACCAUCUCGCUGCCAGUGAAGAAAUGAACAAAGAAAAUCUGGGCCAGGCAGGCCUCAAAAGAAAUAGUCUUGCGCUCAACCAGAAAGUCUGUAAUCAUUUUAAGGGUA | 1.31
16 | GUUAACGGUCAUAGGCCAUGGAAACUAGGAGCACCAUCUCGCUGCCAGUGAAGAAAUGAACAAAGAAAAUCUGGGCCGGGCAGGCAUCAAAAGAAAUAGUCUUGCGCUCAACCAGAAAGUCUGUAAUCAUUUUAAGGGUA | 0.2
17 | GUUAACGGUCAUAGGCCAUGGAAACUAGGAGCACCAUCUCGCUGCCAGUGAAGAAAUGAACAAAGAAAAUCUGGGCCCGGCAGGCAUCAAAAGAAAUAGUCUUGCGCUCAACCAGAAAGUCUGUAAUCAUUUUAAGGGUA | 0.46
18 | GUUAACGGUCAUAGGCCAUGGAAACUAGGAGCACCAUCUCGCUGCCAGUGAAGAAAUGAACAAAGAAAAUCUGGGCCUGGCAGGCAUCAAAAGAAAUAGUCUUGCGCUCAACCAGAAAGUCUGUAAUCAUUUUAAGGGUA | 0.35
19 | GUUAACGGUCAUAGGCCAUGGAAACUAGGAGCACCAUAUCGCUGCCAGUGAAGAAAUGAACAAAGAAAAUCUGGGCCAGGCAGGCAUCAAAAGAAAUAGUCUUGCGCUCAACCAGAAAGUCUGUAAUCACUUUAAGGGUA | 1.47
20 | GUUAACGGUCAUAGGCCAUGGAAACUAGGAGCACCAUAUCGCUGCCAGUGAAGAAAUGAACAAAGAAAAUCUGGGCCAGGCAGGCAUCAAAAGAAAUAGUCUUGCGCUCAACCAGAAAGCCUGUAAUCAUUUUAAGGGUA | 1.12
21 | GUUAACGGUCAUAGGCCAUGGAAACUAGGAGCACCAUAUCGCUGCCAGUGAAGAAAUGAACAAAGAAAAUCUGGGCCAGGCAGGCACCAAAAGAAAUAGUCUUGCGCUCAACCAGAAAGUCUGUAAUCAUUUUAAGGGUA | 1.56

Row | Variant | self-cleavage
22 | GUUAACGGUCAUAGGCCAUGGAAACUAGGAGCACCAUAUCGCUGCCAGUGAAGAAAUGAACAAAGAAAAUCUGGGCCAGGCAGGCAUCAAAAGAAAUAGUCUUGCGCUCAACCAGAAAGUCUGUAAUCAUCUUAAGGGUA | 1.16
23 | GUUAACGGUCAUAGGCCAUGGAAACUAGGAGCACCAUAUCGCUGCCAGUGAAGAAAUGAACAAAGAAAAUCUGGGCCAGGCAGGCAUCAAAAGAAAUAGUCUUGCGCCCAACCAGAAAGUCUGUAAUCAUUUUAAGGGUA | 0.01
24 | GUUAACGGUCAUAGGCCAUGGAAACUAGGAGCACCAUCUCGCUGCCAGUGAAGAAAUGAACAAAGAAAAUCUGGGCCAGGCAGGCAUCAAAUGAAAUAGUCUUGCGCUCAACCAGAAAGUCUGUAAUCAUUUUAAGGGUA | 1.63
25 | GUUAACGGUCAUAGGCCAUGGAAACUAGGAGCACCAUCUCGCUGCCAGUGAAGAAAUGAACAAAGAAAAUCUGGGCCAGGCAGGCAUCAAAGGAAAUAGUCUUGCGCUCAACCAGAAAGUCUGUAAUCAUUUUAAGGGUA | 1.97
26 | GUUAACGGUCAUAGGCCAUGGAAACUAGGAGCACCAUCUCGCUGCCAGUGAAGAAAUGAACAUAGAAAAUCUGGGCCAGGCAGGCAUCAAAAGAAAUAGUCUUGCGCUCAACCAGAAAGUCUGUAAUCAUUUUAAGGGUA | 0.76
27 | GUUAACGGUCAUAGGCCAUGGAAACUAGGAGCACCAUAUCGCUGCCAGUGAAGAAAUGAACAAAGAAAAUCUGGGCCAGGCAUGCAUCAAAAGAAAUAGUCUUGCGCUCAACCAGAAAGUCUGUAAUCAUUUUAAGGGUA | 0.84
28 | GUUAACGGUCAUAGGCCAUGGAAACUAGGAGCACCAUCUCGCUGCCAGUGAAGAAAUGAACAAAGAAAAUCUGGGCCAGGCAGGCAUCGAAAGAAAUAGUCUUGCGCUCAACCAGAAAGUCUGUAAUCAUUUUAAGGGUA | 1.9
29 | GUUAACGGUCAUAGGCCAUGGAAACUAGGAGCACCAUCUCGCUGCCAGUGAAGAAAUGAACAAAGAAAAUCUGGGCCAGGCAGGCAUCCAAAGAAAUAGUCUUGCGCUCAACCAGAAAGUCUGUAAUCAUUUUAAGGGUA | 1.6
30 | GUUAACGGUCAUAGGCCAUGGAAACUAGGAGCACCAUCUCGCUGCCAGUGAAGAAAUGAACAAAGAAAAUCUGGGCCAGGCAGGCAUCUAAAGAAAUAGUCUUGCGCUCAACCAGAAAGUCUGUAAUCAUUUUAAGGGUA | 2.15
31 | GUUAACGGUCAUAGGCCAUGGAAACUAGGAGCACCAUCUCGCUGCCAGUGACGAAAUGAACAAAGAAAAUCUGGGCCAGGCAGGCAUCAAAAGAAAUAGUCUUGCGCUCAACCAGAAAGUCUGUAAUCAUUUUAAGGGUA | 0.68
32 | GUUAACGGUCAUAGGCCAUGGAAACUAGGAGCACCAUCUCGCUGCCAGUGAGGAAAUGAACAAAGAAAAUCUGGGCCAGGCAGGCAUCAAAAGAAAUAGUCUUGCGCUCAACCAGAAAGUCUGUAAUCAUUUUAAGGGUA | 1.53
33 | GUUAACGGUCAUAGGCCAUGGAAACUAGGAGCACCAUAUCGCUGCCAGUGAAGAAAUGAACAAAGAAAAUCUGGGCCAGGCAGGCAUCAAAAGAAAUAGUCUUGCGCUCAACCAGAAAGUCUGUAAUCAUUUUAAGGGUU | 1.08
34 | GUUAACGGUCAUAGGCCAUGGAAACUAGGAGCACCAUCUCGCUGCCAGUGAAGAAAUGAACAAAGAGAAUCUGGGCCAGGCAGGCAUCAAAAGAAAUAGUCUUGCGCUCAACCAGAAAGUCUGUAAUCAUUUUAAGGGUA | 1.55
35 | GUUAACGGUCAUAGGCCAUGGAAACUAGGAGCACCAUCUCGCUGCCAGUGAAGAAAUGAACAAAGAUAAUCUGGGCCAGGCAGGCAUCAAAAGAAAUAGUCUUGCGCUCAACCAGAAAGUCUGUAAUCAUUUUAAGGGUA | 2.33
36 | GUUAACGGUCAUAGGCCAUGGAAACUAGGAGCACCAUAUCGCUGCCAGUGAAGAAAUGAACAAAGAAAAUCUGGGCCAGGCAGGCAUCAAAAGAAAUAGUCCUGCGCUCAACCAGAAAGUCUGUAAUCAUUUUAAGGGUA | 1.99
37 | GUUAACGGUCAUAGGCCAUGGAAACUAGGAGCACCAUAUCGCUGCCAGUGAAGAAAUGAACAAAGAAAAUCUGGGCCAGGCAGGCAUCAAAAGAAACAGUCUUGCGCUCAACCAGAAAGUCUGUAAUCAUUUUAAGGGUA | 1.67
38 | GUUAACGGUCAUAGGCCAUGGAAACUAGGAGCACCAUCUCGCUGCCAGUGAAGAAAUGAACAAAGAAAUUCUGGGCCAGGCAGGCAUCAAAAGAAAUAGUCUUGCGCUCAACCAGAAAGUCUGUAAUCAUUUUAAGGGUA | 0.9
39 | GUUAACGGUCAUAGGCCAUGGAAACUAGGAGCACCAUCUCGCUGCCAGUGAAGAAAUGAACAAAGAAAAUCUGGGCCAGGCAGGCAUCAGAAGAAAUAGUCUUGCGCUCAACCAGAAAGUCUGUAAUCAUUUUAAGGGUA | 1.4
40 | GUUAACGGUCAUAGGCCAUGGAAACUAGGAGCACCAUCUCGCUGCCAGUGAAGAAAUGAACAAAGAAAAUCUGGGCCAGGCAGGCAUCACAAGAAAUAGUCUUGCGCUCAACCAGAAAGUCUGUAAUCAUUUUAAGGGUA | 1.62
41 | GUUAACGGUCAUAGGCCAUGGAAACUAGGAGCACCAUCUCGCUGCCAGUGAAGAAAUGAACAAAGAAGAUCUGGGCCAGGCAGGCAUCAAAAGAAAUAGUCUUGCGCUCAACCAGAAAGUCUGUAAUCAUUUUAAGGGUA | 0.84
